Assay results from patent US20150203577A1 (Chugai, published 2015).

Tests used:
[1] = molecular target: T1, mouse FcγRIII extracellular domain with C-terminal His tag (mouse, UniProt P08508 31-215); experiment: SPR Biacore T200
T1 construct: Made on the basis of NCBI NP-034318.2; also called mFcγRIII; mFcgRIII
T1 chain: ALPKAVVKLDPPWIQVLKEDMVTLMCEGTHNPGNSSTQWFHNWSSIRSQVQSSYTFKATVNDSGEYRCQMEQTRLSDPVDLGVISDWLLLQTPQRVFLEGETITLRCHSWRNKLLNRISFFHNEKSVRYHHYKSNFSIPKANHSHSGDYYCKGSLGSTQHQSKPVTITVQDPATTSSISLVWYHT
Procedure: (§1) Each altered antibody was analyzed for its interaction with each Fcγ receptor prepared above using Biacore T100 (GE Healthcare Japan Corp.), Biacore T200 (GE Healthcare Japan Corp.), Biacore A100, or Biacore 4000. The running buffer used was HBS-EP+ (GE Healthcare Japan Corp.). The assay temperature was set to 25° C. The sensor chips used were chips prepared by immobilizing Protein L (ACTIGEN or BioVision) onto Series S Sensor Chip CM5 (GE Healthcare Japan Corp.) or Series S Sensor Chip CM4 (GE Healthcare Japan Corp.) by the amine coupling method.
(§2) In order to calculate the KD value of each altered antibody for FcγR, kinetic analysis was conducted according to the following method: first, the antibody of interest was captured onto any of these chips and allowed to interact with mFcγR diluted with a running buffer. For the obtained sensorgram, the assay results were globally fit into the 1:1 Langmuir binding model using Biacore Evaluation Software to calculate an association rate constant ka (L/mol/s) and a dissociation rate constant kd (1/s). From these values, the dissociation constant KD (mol/L) was calculated.

[2] = molecular target: T2, mouse FcγRII extracellular domain with C-terminal His tag (mouse, UniProt P08101 30-210); experiment: SPR Biacore T200
T2 construct: Made on the basis of NCBI NP-034317.1; also called mFcγRII; mFcgRII
T2 sequence: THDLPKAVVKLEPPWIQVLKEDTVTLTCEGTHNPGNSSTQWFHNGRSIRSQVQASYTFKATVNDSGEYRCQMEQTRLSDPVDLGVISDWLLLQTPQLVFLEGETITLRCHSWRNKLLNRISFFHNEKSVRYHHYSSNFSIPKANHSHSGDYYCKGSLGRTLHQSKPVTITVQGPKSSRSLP
Procedure: as §1, §2

[3] = molecular target: T2, mouse FcγRII extracellular domain with …; experiment: SPR Biacore T200; KD mFcγRIII / KD mFcγRII
Procedure: as §1, §2

B1: H237-MB392/MRAL-k0 (antibody, mouse IgG1, kappa)
heavy: QVQLQESGPGLVKPSETLSLTCAVSGHSISHDHAWSWVRQPPGEGLEWIGFISYSGITNYNPSLQGRVTISRDNSKNTLYLQMNSLRAEDTAVYYCARSLARTTAMDYWGEGTLVTVSSAKTTPPSVYPLAPGSAAQTNSMVTLGCLVKGYFPEPVTVTWNSGSLSSGVHTFPAVLQSDLYTLSSSVTVPSSTWPSETVTCNVAHPASSTKVDKKIVPRDCGCKPCICEPYEVEDVFIFPPKPKDVLTITLTPKVTCVVVDISKDDPEVQFSWFVDDVEVHTAQTQPREEQFNSTFRSVSELPIMHQDWLNGKEFKCRVNSAAFPAPIEKTISKTKGRPKAPQVYTIPPPKEQMAKDKVSLTCMITDFFPEDITVEWQWNGQPAENYKNTQPIMDTDGSYFVYSKLNVQKSNWEAGNTFTCSVLHEGLHNHHTEKSLSHSPGK
light: not shown
notes: copies: 2 + 2
Kd [1]: 19.5 nM | relative mFcγRIII-binding activity (mIgG1 = 1) [1]: 14.5 | Kd [2]: 0.817 nM | relative mFcγRII-binding activity (mIgG1 = 1) [2]: 257 | I/A (mFcγRII selectivity) [3]: 23.9 | relative I/A (mFcγRII selectivity) (mIgG1 = 1) [3]: 17.8

B2: H237-MB396/MRAL-k0 (antibody, mouse IgG1, kappa)
heavy: QVQLQESGPGLVKPSETLSLTCAVSGHSISHDHAWSWVRQPPGEGLEWIGFISYSGITNYNPSLQGRVTISRDNSKNTLYLQMNSLRAEDTAVYYCARSLARTTAMDYWGEGTLVTVSSAKTTPPSVYPLAPGSAAQTNSMVTLGCLVKGYFPEPVTVTWNSGSLSSGVHTFPAVLQSDLYTLSSSVTVPSSTWPSETVTCNVAHPASSTKVDKKIVPRDCGCKPCICETWEVEDVFIFPPKPKDVLTITLTPKVTCVVVDISKDDPEVQFSWFVDDVEVHTAQTQPREEQFNSTFRSVSELPIMHQDWLNGKEFKCRVNSAAFPAPIEKTISKTKGRPKAPQVYTIPPPKEQMAKDKVSLTCMITDFFPEDITVEWQWNGQPAENYKNTQPIMDTDGSYFVYSKLNVQKSNWEAGNTFTCSVLHEGLHNHHTEKSLSHSPGK
light: not shown
notes: copies: 2 + 2
Kd [1]: 15.8 nM | relative mFcγRIII-binding activity (mIgG1 = 1) [1]: 17.9 | Kd [2]: 0.707 nM | relative mFcγRII-binding activity (mIgG1 = 1) [2]: 297 | I/A (mFcγRII selectivity) [3]: 22.3 | relative I/A (mFcγRII selectivity) (mIgG1 = 1) [3]: 16.6

B3: H237-MB398/MRAL-k0 (antibody, mouse IgG1, kappa)
heavy: QVQLQESGPGLVKPSETLSLTCAVSGHSISHDHAWSWVRQPPGEGLEWIGFISYSGITNYNPSLQGRVTISRDNSKNTLYLQMNSLRAEDTAVYYCARSLARTTAMDYWGEGTLVTVSSAKTTPPSVYPLAPGSAAQTNSMVTLGCLVKGYFPEPVTVTWNSGSLSSGVHTFPAVLQSDLYTLSSSVTVPSSTWPSETVTCNVAHPASSTKVDKKIVPRDCGCKPCICEWPEVEDVFIFPPKPKDVLTITLTPKVTCVVVDISKDDPEVQFSWFVDDVEVHTAQTQPREEQFNSTFRSVSELPIMHQDWLNGKEFKCRVNSAAFPAPIEKTISKTKGRPKAPQVYTIPPPKEQMAKDKVSLTCMITDFFPEDITVEWQWNGQPAENYKNTQPIMDTDGSYFVYSKLNVQKSNWEAGNTFTCSVLHEGLHNHHTEKSLSHSPGK
light: not shown
notes: copies: 2 + 2
relative mFcγRIII-binding activity (mIgG1 = 1) [1]: 3.5 | relative mFcγRII-binding activity (mIgG1 = 1) [2]: 45.8 | relative I/A (mFcγRII selectivity) (mIgG1 = 1) [3]: 13

B4: H237-MB399/MRAL-k0 (antibody, mouse IgG1, kappa)
heavy: QVQLQESGPGLVKPSETLSLTCAVSGHSISHDHAWSWVRQPPGEGLEWIGFISYSGITNYNPSLQGRVTISRDNSKNTLYLQMNSLRAEDTAVYYCARSLARTTAMDYWGEGTLVTVSSAKTTPPSVYPLAPGSAAQTNSMVTLGCLVKGYFPEPVTVTWNSGSLSSGVHTFPAVLQSDLYTLSSSVTVPSSTWPSETVTCNVAHPASSTKVDKKIVPRDCGCKPCICEWAEVEDVFIFPPKPKDVLTITLTPKVTCVVVDISKDDPEVQFSWFVDDVEVHTAQTQPREEQFNSTFRSVSELPIMHQDWLNGKEFKCRVNSAAFPAPIEKTISKTKGRPKAPQVYTIPPPKEQMAKDKVSLTCMITDFFPEDITVEWQWNGQPAENYKNTQPIMDTDGSYFVYSKLNVQKSNWEAGNTFTCSVLHEGLHNHHTEKSLSHSPGK
light: not shown
notes: copies: 2 + 2
relative mFcγRIII-binding activity (mIgG1 = 1) [1]: 3.9 | relative mFcγRII-binding activity (mIgG1 = 1) [2]: 71.8 | relative I/A (mFcγRII selectivity) (mIgG1 = 1) [3]: 18.2

B5: H237-MB394/MRAL-k0 (antibody)
heavy: QVQLQESGPGLVKPSETLSLTCAVSGHSISHDHAWSWVRQPPGEGLEWIGFISYSGITNYNPSLQGRVTISRDNSKNTLYLQMNSLRAEDTAVYYCARSLARTTAMDYWGEGTLVTVSSAKTTPPSVYPLAPGSAAQTNSMVTLGCLVKGYFPEPVTVTWNSGSLSSGVHTFPAVLQSDLYTLSSSVTVPSSTWPSETVTCNVAHPASSTKVDKKIVPRDCGCKPCICETAEVEDVFIFPPKPKDVLTITLTPKVTCVVVDISKDDPEVQFSWFVDDVEVHTAQTQPREEQFNSTFRSVSELPIMHQDWLNGKEFKCRVNSAAFPAPIEKTISKTKGRPKAPQVYTIPPPKEQMAKDKVSLTCMITDFFPEDITVEWQWNGQPAENYKNTQPIMDTDGSYFVYSKLNVQKSNWEAGNTFTCSVLHEGLHNHHTEKSLSHSPGK
light: not shown
notes: Printed M8394, read as MB394; also called M8394; copies: 2 + 2
relative mFcγRIII-binding activity (mIgG1 = 1) [1]: 7.5 | relative mFcγRII-binding activity (mIgG1 = 1) [2]: 134 | relative I/A (mFcγRII selectivity) (mIgG1 = 1) [3]: 17.8

B6: H237-MB393/MRAL-k0 (antibody, mouse IgG1, kappa)
heavy: QVQLQESGPGLVKPSETLSLTCAVSGHSISHDHAWSWVRQPPGEGLEWIGFISYSGITNYNPSLQGRVTISRDNSKNTLYLQMNSLRAEDTAVYYCARSLARTTAMDYWGEGTLVTVSSAKTTPPSVYPLAPGSAAQTNSMVTLGCLVKGYFPEPVTVTWNSGSLSSGVHTFPAVLQSDLYTLSSSVTVPSSTWPSETVTCNVAHPASSTKVDKKIVPRDCGCKPCICETPEVEDVFIFPPKPKDVLTITLTPKVTCVVVDISKDDPEVQFSWFVDDVEVHTAQTQPREEQFNSTFRSVSELPIMHQDWLNGKEFKCRVNSAAFPAPIEKTISKTKGRPKAPQVYTIPPPKEQMAKDKVSLTCMITDFFPEDITVEWQWNGQPAENYKNTQPIMDTDGSYFVYSKLNVQKSNWEAGNTFTCSVLHEGLHNHHTEKSLSHSPGK
light: not shown
notes: copies: 2 + 2
relative mFcγRIII-binding activity (mIgG1 = 1) [1]: 5.6 | relative mFcγRII-binding activity (mIgG1 = 1) [2]: 89.9 | relative I/A (mFcγRII selectivity) (mIgG1 = 1) [3]: 16

B7: H237-MB395/MRAL-k0 (antibody, mouse IgG1, kappa)
heavy: QVQLQESGPGLVKPSETLSLTCAVSGHSISHDHAWSWVRQPPGEGLEWIGFISYSGITNYNPSLQGRVTISRDNSKNTLYLQMNSLRAEDTAVYYCARSLARTTAMDYWGEGTLVTVSSAKTTPPSVYPLAPGSAAQTNSMVTLGCLVKGYFPEPVTVTWNSGSLSSGVHTFPAVLQSDLYTLSSSVTVPSSTWPSETVTCNVAHPASSTKVDKKIVPRDCGCKPCICETNEVEDVFIFPPKPKDVLTITLTPKVTCVVVDISKDDPEVQFSWFVDDVEVHTAQTQPREEQFNSTFRSVSELPIMHQDWLNGKEFKCRVNSAAFPAPIEKTISKTKGRPKAPQVYTIPPPKEQMAKDKVSLTCMITDFFPEDITVEWQWNGQPAENYKNTQPIMDTDGSYFVYSKLNVQKSNWEAGNTFTCSVLHEGLHNHHTEKSLSHSPGK
light: not shown
notes: copies: 2 + 2
relative mFcγRIII-binding activity (mIgG1 = 1) [1]: 8.2 | relative mFcγRII-binding activity (mIgG1 = 1) [2]: 154 | relative I/A (mFcγRII selectivity) (mIgG1 = 1) [3]: 18.7
